Test results as given in paper PMC4872540, “Structural insight into antibody-mediated antagonism of the Glucagon-like peptide-1 Receptor” (Scientific Reports, 2016).

Target: human GLP-1R (human, UniProt P43220)
Test: cell-based or functional assay

human GLP-1R, sequence (P43220 24-463): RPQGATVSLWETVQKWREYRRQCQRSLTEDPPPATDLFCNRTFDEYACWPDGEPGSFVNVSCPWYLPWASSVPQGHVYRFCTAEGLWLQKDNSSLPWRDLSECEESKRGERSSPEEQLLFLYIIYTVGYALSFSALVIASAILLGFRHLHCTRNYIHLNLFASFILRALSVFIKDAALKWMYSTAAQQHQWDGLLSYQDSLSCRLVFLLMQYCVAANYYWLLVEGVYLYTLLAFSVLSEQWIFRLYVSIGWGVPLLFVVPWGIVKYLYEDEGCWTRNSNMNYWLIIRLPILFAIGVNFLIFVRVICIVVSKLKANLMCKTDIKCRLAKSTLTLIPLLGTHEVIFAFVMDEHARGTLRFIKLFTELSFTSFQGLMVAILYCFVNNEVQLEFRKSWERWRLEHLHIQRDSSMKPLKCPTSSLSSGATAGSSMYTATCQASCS

B1: mAb 3F52 (antibody, V domains shown)
VH: DVQLQESGPGLVKPSQSLSLTCTVTGYSITSTYDWHWIRHFPGNILEWMGYISYSGSTNYNPSLKSRISITHDTSKNRFFLKLNSVTSEDTATYYCARATASFYDGSYYFDYWGQGTTLTVSS
VL: DIQMTQTTSSLSASLGDRVTISCRASQDISNYLNWYQQKPDGTVKLLIYYTSRLHSGVPSRFSGSGSGTDYSLTISSLEQEDVATYFCQQGNTLPFTFGSGTKLEIK
IC50 of inhibition of GLP-1-mediated cAMP accumulation (Flashplate assay, BHK cells over-expressing human GLP-1R); blocks GLP-1 with GLP-1R: ~10 nM
